# Reference: patent EP4242303A1 (Novozymes A/S, dated 2023)
# Where a chain is given by its changes, count along the chain named. Names and notes keep the numbering of the source.
# T1: deamidase polypeptide from Chryseobacterium sp-62563 (deamidase domain of the pro-form SEQ ID NO: 5) (Chryseobacterium sp-62563)
# T1 chain: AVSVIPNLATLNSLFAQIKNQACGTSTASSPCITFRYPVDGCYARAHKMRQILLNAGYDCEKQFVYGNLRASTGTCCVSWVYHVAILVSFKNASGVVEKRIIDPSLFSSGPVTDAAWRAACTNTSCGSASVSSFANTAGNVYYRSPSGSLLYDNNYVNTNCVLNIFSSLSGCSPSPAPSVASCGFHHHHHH
# T2: deamidase polypeptide from Chryseobacterium defluvii (deamidase domain of the fusion polypeptide SEQ ID NO: … (Chryseobacterium defluvii))
# T2 chain: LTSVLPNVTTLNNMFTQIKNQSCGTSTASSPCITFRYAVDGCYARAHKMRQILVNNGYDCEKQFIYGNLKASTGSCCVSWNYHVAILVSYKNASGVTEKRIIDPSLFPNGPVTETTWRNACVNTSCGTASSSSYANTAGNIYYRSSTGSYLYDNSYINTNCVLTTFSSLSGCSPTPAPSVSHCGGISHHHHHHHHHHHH
# T3: deamidase polypeptide from Chryseobacterium culicis (deamidase domain of the fusion polypeptide SEQ ID NO: 15) (Chryseobacterium culicis)
# T3 chain: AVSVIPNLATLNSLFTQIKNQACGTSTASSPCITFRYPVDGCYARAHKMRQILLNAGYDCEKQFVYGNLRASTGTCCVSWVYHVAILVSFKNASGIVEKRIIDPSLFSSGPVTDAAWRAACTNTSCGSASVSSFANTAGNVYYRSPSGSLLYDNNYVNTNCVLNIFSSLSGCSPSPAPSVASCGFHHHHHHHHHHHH
# T4: deamidase polypeptide from Chryseobacterium gambrini (deamidase domain of the fusion polypeptide SEQ ID NO: … (Chryseobacterium gambrini))
# T4 chain: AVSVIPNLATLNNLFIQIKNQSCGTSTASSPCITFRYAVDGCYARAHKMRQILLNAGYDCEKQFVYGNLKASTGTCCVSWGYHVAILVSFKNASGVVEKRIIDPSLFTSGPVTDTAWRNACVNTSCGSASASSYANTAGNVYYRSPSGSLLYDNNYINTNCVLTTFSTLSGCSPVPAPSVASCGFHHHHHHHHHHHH
# B1: propeptide from Chryseobacterium sp-62563 (wildtype propeptide domain of the protein glutamine deamidase pro-form SEQ ID NO: 5) (other)
# chain: NQDPNLVAKESNETAMKDFGKTVPVGIEKEDGKFKISFMVTAQPYEIKDSKENAAYISMIKTAVENETPIHVFLKANTNEIAKVDKATDDDIRYFKSVFTKEVKEENRK
# B2: propeptide from Chryseobacterium defluvii (propeptide domain of the fusion polypeptide SEQ ID NO: 20) (other)
# chain: ATNQDVVGKENTSNHVAARDFGKTVPVGINEENGTLKVSFILSAQFYEIKPSKENEEYISLIRQAIQNESPIHVFMKLNSNEIVKVEKGTEEDVKYFRSILTKEVKEENRK
# B3: propeptide from Chryseobacterium culicis (propeptide domain of the fusion polypeptide SEQ ID NO: 15) (other)
# chain: NQDPNLVAKESNEIAMKDFGKTVPVGIEKEEGKFKVSFMVSAQPYHIKDSKENAGYISMIRQAVENETPVHIFLKTNTNEIAKVDKPTDDDIRYFKSVFTKEVKEENRK
# B4: propeptide from Chryseobacterium gambrini (propeptide domain of the fusion polypeptide SEQ ID NO: 10) (other)
# chain: NQDPNLVVKENNENAMRDFGSTIPVGIQKEGNVLKVSFIISAQFYEIKDSKENEAFISMIKSAIENETPVHVFLKKNSNEIAKVEKATDEDVTYFKSIFTKEVKEENRK
# B5: variant deamidase propeptide Y94P of Chryseobacterium sp-62563 (SEQ ID NO: 2) (other)
# chain: B1 chain with Y94P
# B6: variant deamidase propeptide F99K of Chryseobacterium sp-62563 (SEQ ID NO: 2) (other)
# chain: B1 chain with F99K
# B7: variant deamidase propeptide F99G of Chryseobacterium sp-62563 (SEQ ID NO: 2) (other)
# chain: B1 chain with F99G
# B8: variant deamidase propeptide Y45G of Chryseobacterium sp-62563 (SEQ ID NO: 2) (other)
# chain: B1 chain with Y45G
# B9: variant deamidase propeptide V23S of Chryseobacterium sp-62563 (SEQ ID NO: 2) (other)
# chain: B1 chain with V23S
# B10: variant deamidase propeptide F99A of Chryseobacterium sp-62563 (SEQ ID NO: 2) (other)
# chain: B1 chain with F99A
# B11: variant deamidase propeptide Y45T of Chryseobacterium sp-62563 (SEQ ID NO: 2) (other)
# chain: B1 chain with Y45T
# B12: variant deamidase propeptide F38C of Chryseobacterium sp-62563 (SEQ ID NO: 2) (other)
# chain: B1 chain with F38C
# Target: T1, deamidase polypeptide from …
# Assay: cell-based or functional assay
row,NanoDSF thermal unfolding temperature [°C],Binder
1,85.3,B1

# Target: T2, deamidase polypeptide from …
# Assay: cell-based or functional assay
row,NanoDSF thermal unfolding temperature [°C],Binder
1,89,B2

# Target: T3, deamidase polypeptide from …
# Assay: cell-based or functional assay
row,NanoDSF thermal unfolding temperature [°C],Binder
1,85.2,B3

# Target: T4, deamidase polypeptide from …
# Assay: cell-based or functional assay
row,NanoDSF thermal unfolding temperature [°C],Binder
1,89.3,B4

# Target: T1, deamidase polypeptide from …
# Assay: cell-based or functional assay
# Remark: another data set of the same source
row,"Relative activity of ""activated"" sample (% initial rate) [%]",Binder
1,≥ 100,B5
2,≥ 100,B6
3,≥ 100,B7
4,≥ 100,B8
5,≥ 100,B9
6,≥ 100,B10
7,≥ 100,B11
8,≥ 100,B12

# Target: T1, deamidase polypeptide from …
# Assay: cell-based or functional assay
# Remark: another data set of the same source
row,NanoDSF thermal unfolding temperature [°C],Binder
1,75.2,B5
2,75.4,B6
3,74.1,B7
4,65.2,B8
5,69.8,B9
6,76.4,B10
7,73.7,B11
8,76.2,B12

# Target: T1, deamidase polypeptide from …
# Assay: cell-based or functional assay
# Remark: another data set of the same source
row,Leakage activity [%],Binder
1,23,B5
2,32,B6
3,20,B7
4,2,B8
5,10,B9
6,20,B10
7,2,B11
8,26,B12
